Ends that are not written are not given here.
What was measured:
[1] = target: T1, microtubule-associated protein 1A/1B light chain 3B protein (human, UniProt Q9GZQ8 1-120); test: BLI
GABARAP = GABARAP (human, UniProt O95166 1-117); test: BLI
[2] = target: T1, microtubule-associated protein 1A/1B …; test: fluorescence polarisation

Chain of GABARAP (O95166 whole entry): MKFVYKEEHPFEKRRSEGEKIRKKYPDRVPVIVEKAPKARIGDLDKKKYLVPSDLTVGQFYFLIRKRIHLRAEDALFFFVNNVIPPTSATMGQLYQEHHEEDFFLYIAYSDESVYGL

B1: FYCO1 peptide C1289S (peptide)
peptide: DDAVFDIITDEELSQIQEW
HELM: PEPTIDE1{[O=C1N[C@H]2[C@H](CS[C@H]2CCCCC(=O)[*:2])N1].[bAla].[bAla].D.D.A.V.F.D.I.I.T.D.E.E.L.S.Q.I.Q.E.W.[am]}$$$$V2.0
SMILES: CC[C@H](C)[C@H](NC(=O)[C@H](CCC(N)=O)NC(=O)[C@H](CO)NC(=O)[C@H](CC(C)C)NC(=O)[C@H](CCC(=O)O)NC(=O)[C@H](CCC(=O)O)NC(=O)[C@H](CC(=O)O)NC(=O)[C@@H](NC(=O)[C@@H](NC(=O)[C@@H](NC(=O)[C@H](CC(=O)O)NC(=O)[C@H](Cc1ccccc1)NC(=O)[C@@H](NC(=O)[C@H](C)NC(=O)[C@H](CC(=O)O)NC(=O)[C@H](CC(=O)O)NC(=O)CCNC(=O)CCNC(=O)CCCC[C@@H]1SC[C@@H]2NC(=O)N[C@@H]21)C(C)C)[C@@H](C)CC)[C@@H](C)CC)[C@@H](C)O)C(=O)N[C@@H](CCC(N)=O)C(=O)N[C@@H](CCC(=O)O)C(=O)N[C@@H](Cc1c[nH]c2ccccc12)C(N)=O
B1 gave a Kd [1] of 330 nM.

B2: biotinylated K1 peptide (peptide)
peptide: DATYTWEHLAWP
HELM: PEPTIDE1{[O=C1N[C@H]2[C@H](CS[C@H]2CCCCC(=O)[*:2])N1].[bAla].[bAla].D.A.T.Y.T.W.E.H.L.A.W.P.[am]}$$$$V2.0
SMILES: CC(C)C[C@H](NC(=O)[C@H](Cc1c[nH]cn1)NC(=O)[C@H](CCC(=O)O)NC(=O)[C@H](Cc1c[nH]c2ccccc12)NC(=O)[C@@H](NC(=O)[C@H](Cc1ccc(O)cc1)NC(=O)[C@@H](NC(=O)[C@H](C)NC(=O)[C@H](CC(=O)O)NC(=O)CCNC(=O)CCNC(=O)CCCC[C@@H]1SC[C@@H]2NC(=O)N[C@@H]21)[C@@H](C)O)[C@@H](C)O)C(=O)N[C@@H](C)C(=O)N[C@@H](Cc1c[nH]c2ccccc12)C(=O)N1CCC[C@H]1C(N)=O
For B2, the Kd (GABARAP) was 390 nM.

In the case of Fluorescein-DATYTWEHLAWP [fluorescein-labeled K1 peptide], the Kd [2] is reported as 1200 nM.
